The results in this text go back to patent US20140044730A1 (Regeneron, published 2014).

For assay [1], the target named is T1, human PCSK9 with a C-terminal myc-myc-hexahistidine tag (human, UniProt Q8NBP7 31-692, limits assumed).
T1 construct: also called hPCSK9-mmH; hPCSK9-mmh; not shown: C-terminal myc-myc-hexahistidine tag
Briefly: SPR 25C, mAb captured.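 Also: biacore CM4 surface bearing anti-human Fc antibody capturing the mAbs, PCSK9 binding and release rates fitted with a one-to-one model, KD and half-life derived from those rates.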

In assay [2] the target is T2, human PCSK9 with a C-terminal myc-myc hexahistidine tag and a D374Y mutation (human, UniProt Q8NBP7 31-692, limits assumed). Put plainly: cell-based or functional assay.
The target of assay [3] is T3, recombinant cynomolgus monkey PCSK9 with a C-terminal myc-myc hexahistidine tag (cynomolgus monkey, UniProt A8T662 31-692 (Macaca nemestrina entry), limits assumed). Put plainly: cell-based or functional assay.
The target of assay [4] is T1, human PCSK9 with a C-terminal …. Briefly: cell-based or functional assay.
For assay [5] the target is unchanged. Put plainly: SPR 25C pH 7.2, mAb captured.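 Also: biacore SPR, antibodies captured on anti-human Fc CM4 chip with PCSK9 flowed as analyte, rate constants from a one-to-one kinetic fit, KD and half-life derived from them.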
Method: (§1) A Biacore CM4 sensor chip was derivatized with a monoclonal mouse anti-human Fc antibody to capture human antibodies. The histidine substitution variant anti-PCSK9 antibodies were captured onto the anti-human Fc sensor surface from culture medium after transient expression in Chinese hamster ovary (CHO) cells. […] Kinetic association (kₐ) and dissociation (kd) rate constants were determined by processing and fitting the data to a 1:1 binding model using Scrubber 2.0 curve fitting software. Binding dissociation equilibrium constants (KD) and dissociative half-lives (t_{1/2}) were calculated from the kinetic rate constants as: KD (M)=kd/kₐ; and t_{1/2} (min)=(In2/(60*kd).
The target is the same in assay [6]. Briefly: SPR 25C pH 5.75, mAb captured.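 Also: biacore surface with anti-human Fc antibody capturing the antibodies, PCSK9 as analyte, one-to-one kinetic fit, KD as kd over ka, half-life derived from kd.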
Assay [7] shares this target. Put plainly: SPR 25C, purified mAb captured.
Method: as §1
(§2) Also included in these experiments were several control/comparator antibodies. All measurements were taken at 25° C.
For assay [8] the target is unchanged. Put plainly: SPR 25C pH 7.4, purified mAb captured.
Method: as §1
All measurements were taken at 25° C.
Assay [9] shares this target. Put plainly: SPR 25C pH 6.0, purified mAb captured.
Method: as §1, §2
Assay [10] has the same target. Briefly: SPR 25C pH 7.2, mAb captured; pH 7.2, 25 C.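 Also: biacore SPR, antibodies captured on anti-human Fc CM4 chip with PCSK9 flowed as analyte, rate constants from a one-to-one kinetic fit, KD and half-life derived from them.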
Method: as §1
For assay [11] the target is unchanged. Put plainly: blocking ELISA, hPCSK9-mmH vs coated hLDLR EGFA-hFc.
Method: (§3) Briefly, hLDLR EGFA-hFc was coated at 2 μg/mL in PBS on a 96-well microtiter plate overnight at 4° C. followed by blocking with a solution of 0.5% (w/v) BSA in PBS.
(§4) The equilibrated sample solutions were then transferred to a LDLR EGFA-hFc coated plate.
Assay [12] shares this target. Put plainly: blocking ELISA pH 7.2, 500 pM hPCSK9-mmH vs coated hLDLR EGFA-hFc.
Method: as §3, §4
The target is the same in assay [13]. Put plainly: blocking ELISA pH 5.75, 500 pM hPCSK9-mmH vs coated hLDLR EGFA-hFc.
Method: as §3, §4
The target is the same in assay [14]. Briefly: blocking ELISA pH 7.2, 500 pM hPCSK9-mmH vs coated hLDLR EGFA-hFc, exp #1.
From the text: (§5) The equilibrated sample solutions were then transferred to the LDLR EGFA-hFc coated plate prepared as described above.
Assay [15] shares this target. Put plainly: blocking ELISA pH 7.2, 500 pM hPCSK9-mmH vs coated hLDLR EGFA-hFc, exp #2.
From the text: as §5
The target is the same in assay [16]. Put plainly: SPR (Biacore), 37 °C; antibody captured on anti-human Fc surface, hPCSK9-mmH injected (3.125-50 nM); association at pH 7.4, dissociation at pH 6.0.
Method: (§6) All experiments were carried out at 37° C.
(§7) A Biacore CM4 sensor chip was derivatized with a Fab′2 polyclonal anti-human Fc antibody to capture human antibodies. […] Dissociation (kd) rate constants were determined by processing and fitting the data using Scrubber version 2.0 curve fitting software. Dissociative half-lives (t_{1/2}) were calculated from the dissociation rate constants as: t_{1/2} (min)=(In2/kd)/60.
Assay [17] shares this target. Briefly: SPR (Biacore), 37 °C; antibody captured on anti-human Fc surface, hPCSK9-mmH injected (3.125-50 nM); association at pH 7.4, dissociation at pH 7.2.
Method: as §7
For assay [18] the target is unchanged. Put plainly: SPR (Biacore), 37 °C; antibody captured on anti-human Fc surface, hPCSK9-mmH injected (3.125-50 nM); association at pH 7.4, dissociation at pH 7.4.
Method: as §6, §7
Assay [19] shares this target. Briefly: SPR (Biacore), 37 °C; antibody captured on anti-human Fc surface, hPCSK9-mmH injected (3.125-50 nM); association at pH 7.4, dissociation at pH 5.75.
Method: as §6, §7
Assay [20] has the same target. Put plainly: cell-based or functional assay. The source holds these as a separate data set.
The target in assay [21] is T2, human PCSK9 with a C-terminal myc-myc …. Put plainly: cell-based or functional assay. The source holds these as a separate data set.
In assay [22] the target is T3, recombinant cynomolgus monkey PCSK9 …. Briefly: cell-based or functional assay. This is another data set of the same source.
Assay [23] deals with T1, human PCSK9 with a C-terminal …. Put plainly: SPR (Biacore), 37 °C; antibody captured on anti-human Fc surface, hPCSK9-mmH injected (3.125-50 nM); association at pH 7.4, dissociation at pH 6.0. The source holds these as a separate data set.
Method: as §7
For assay [24] the target is unchanged. Briefly: SPR (Biacore), 37 °C; antibody captured on anti-human Fc surface, hPCSK9-mmH injected (3.125-50 nM); association at pH 7.4, dissociation at pH 7.2. This is another data set of the same source.
Method: as §7
The target is the same in assay [25]. Briefly: SPR (Biacore), 37 °C; antibody captured on anti-human Fc surface, hPCSK9-mmH injected (3.125-50 nM); association at pH 7.4, dissociation at pH 7.4. The source holds these as a separate data set.
Method: as §7
The target is the same in assay [26]. Put plainly: SPR (Biacore), 37 °C; antibody captured on anti-human Fc surface, hPCSK9-mmH injected (3.125-50 nM); association at pH 7.4, dissociation at pH 5.75. The source holds these as a separate data set.
Method: as §7
Assay [27] shares this target. Briefly: SPR 25C pH 7.2, mAb captured; pH 7.2 (neutral), 25 C.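 Also: biacore SPR, antibodies captured on anti-human Fc CM4 chip with PCSK9 flowed as analyte, rate constants from a one-to-one kinetic fit, KD and half-life derived from them.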
Method: as §1

Numbering of substitutions follows the chain as printed. Like-named read-outs stand apart in the source and are kept apart here.

B1: VH-D106H (antibody, V domains shown)
VH: EMQLVESGGGLVQPGGSLRLSCAASGFTFSSHWMKWVRQAPGKGLEWVANINQDGSEKYYVDSVKGRFTISRDNAKNSLFLQMNSLRAEDTAVYYCARDIVLMVYHMDYYYYGMDVWGQGTTVTVSS
VL: not shown
notes: His variant of 300N
Take B1: the “KD ratio pH 5.75/pH 7.2” value in assay [1] came out at 4.34. The “t½ ratio pH 5.75/pH 7.2” value in [1] was found to be 0.1. For the same molecule, the “IC50, LDL uptake in HepG2 cells, 2 nM hPCSK9-D374Y-mmH” value (from here on “IC50 … 2 nM hPCSK9-D374Y-mmH”) in assay [2] turned out to be 2.7 nM. In addition, the “IC50, LDL uptake in HepG2 cells, 50 nM MfPCSK9-mmH” value (“IC50 … 50 nM MfPCSK9-mmH” for short) in assay [3] was 12.7 nM. The “IC50, LDL uptake in HepG2 cells, 100 nM hPCSK9-mmH” value (“IC50 … 100 nM hPCSK9-mmH” for short) in [4] amounted to 32 nM. Further, the t½ in assay [5] is 35 min; in assay [6] it was 3.4 min; in assay [8], 129 min; in [9], 15.4 min. The Kd in [6] turned out to be 9.59 nM; in assay [8], 1.06 nM; in assay [9], 7.04 nM; in [10], 2.21 nM. Moreover, the “KD ratio pH 6.0/pH 7.4” value in assay [7] came out at 6.64. Also, the “ka ratio pH 6.0/pH 7.4” value in assay [7] turned out to be 1.26. Further, in assay [7], the “kd ratio pH 6.0/pH 7.4” value was 8.35. In assay [7], the “t½ ratio pH 6.0/pH 7.4” value came out at 0.12. The values for the koff in assay [8] and in [9] were 8.98e-05 s⁻¹ and 0.00075 s⁻¹, respectively. Also, the kon turned out to be 84700 M⁻¹ s⁻¹ in assay [8] and 107000 M⁻¹ s⁻¹ in assay [9]. Moreover, the “IC50 ratio (pH 5.75/pH 7.2)” value in assay [11] stood at 5.5. For the same molecule, the IC50 is 0.319 nM in assay [12], 1.75 nM in assay [13], 0.349 nM in [14] and 0.395 nM in [15]. Moreover, the “t½ (dissociative half-life)” value stood at 3.5 min in assay [16], 42 min in assay [17], 36 min in [18] and 2.8 min in assay [19].

B2: 300N(v2) (antibody, IgG4, V domains shown)
VH: B1 VH with H106D
VL: not shown
For B2, in [4], the “IC50 … 100 nM hPCSK9-mmH” value worked out at 32 nM. In addition, in [20], the “IC50, LDL uptake in HepG2 cells, 50 nM hPCSK9-mmH” value was determined as 10.3 nM. Moreover, the “IC50 … 2 nM hPCSK9-D374Y-mmH” value in assay [21] was 2 nM. The “IC50 … 50 nM MfPCSK9-mmH” value in assay [22] is 15.7 nM. Besides, in assay [7], the “KD ratio pH 6.0/pH 7.4” value was 2.09, the “ka ratio pH 6.0/pH 7.4” value worked out at 1.89, the “kd ratio pH 6.0/pH 7.4” value was determined as 3.94 and the “t½ ratio pH 6.0/pH 7.4” value was 0.25. In assay [8], binding was characterised by a dissociation constant (Kd) of 0.546 nM, the koff was found to be 7.93e-05 s⁻¹, the kon stood at 145000 M⁻¹ s⁻¹ and the t½ amounted to 146 min. Moreover, in assay [9], the Kd turned out to be 1.14 nM, the koff is 0.000313 s⁻¹, the kon came out at 274000 M⁻¹ s⁻¹ and the t½ amounted to 36.9 min. Also, the “IC50 ratio (pH 5.75/pH 7.2)” value in assay [11] turned out to be 1.2. Moreover, the IC50 in assay [12] was found to be 0.221 nM. This molecule also yielded a half-maximal inhibitory concentration (IC50) in [13] of 0.268 nM. Also, in [23], the “t½ (dissociative half-life)” value was 7.1 min. The “t½ (dissociative half-life)” value in assay [24] was determined as 46.2 min. The “t½ (dissociative half-life)” value in assay [25] was determined as 34.6 min. Moreover, the “t½ (dissociative half-life)” value in [26] turned out to be 7 min.

B3: VK-L30H (antibody, V domains shown)
VH: B1 VH with H106D
VL: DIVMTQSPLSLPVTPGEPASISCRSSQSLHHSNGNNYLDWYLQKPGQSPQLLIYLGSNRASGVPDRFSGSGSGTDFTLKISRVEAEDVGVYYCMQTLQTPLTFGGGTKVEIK
notes: His variant of 300N
As for B3, in [1], the “KD ratio pH 5.75/pH 7.2” value is 25.5. Besides, the “t½ ratio pH 5.75/pH 7.2” value in assay [1] came out at 0.01. Also, the “IC50 … 2 nM hPCSK9-D374Y-mmH” value is 2.1 nM in assay [2] and 3.3 nM in [21]. Besides, the “IC50 … 50 nM MfPCSK9-mmH” value in [3] is 19.9 nM; in assay [22] it was 26.4 nM. In addition, the “IC50 … 100 nM hPCSK9-mmH” value in assay [4] is 37 nM. Besides, the “IC50, LDL uptake in HepG2 cells, 50 nM hPCSK9-mmH” value in assay [20] came out at 9 nM. Besides, the Kd in assay [5] amounted to 2.27 nM; in assay [6], 57.8 nM; in assay [8], 1.82 nM; in [9], 27 nM. The t½ was determined as 16 min in [5], 0.2 min in assay [6], 39.4 min in [8] and 1.4 min in [9]. The “KD ratio pH 6.0/pH 7.4” value in [7] came to 14.8. Besides, the “ka ratio pH 6.0/pH 7.4” value in assay [7] was found to be 1.94. The “kd ratio pH 6.0/pH 7.4” value in [7] stood at 28.8. In addition, the “t½ ratio pH 6.0/pH 7.4” value in [7] is 0.03. For the same molecule, the values for the koff in [8] and in assay [9] were 0.000293 s⁻¹ and 0.00845 s⁻¹, respectively. For the same molecule, the kon was 161000 M⁻¹ s⁻¹ in [8] and 313000 M⁻¹ s⁻¹ in assay [9]. The “IC50 ratio (pH 5.75/pH 7.2)” value in assay [11] is 208. Also, the 50% inhibitory concentration (IC50) in assay [12] was found to be 0.209 nM; in [13], 43.4 nM; in assay [14] it was 0.166 nM; in assay [15], 0.198 nM. Further, the “t½ (dissociative half-life)” value worked out at 0.4 min in [16], 11.2 min in assay [17], 10.6 min in [18] and 0.2 min in [19].

B4: VH-M114H (antibody, V domains shown)
VH: B1 VH with H106D, M114H
VL: not shown
notes: His variant of 300N
B4: in [27], the equilibrium dissociation constant (Kd) amounted to 386 nM and the t½ is 0 h.
